In experiment [1] the test system is Akt phosphorylation in Caki-1 cells. The experiment is described as follows: Akt phosphorylation (phospho-AKT1 Ser473 sandwich ELISA). Format: cell-based. The note with it: 5 ug/ml, FIG. 8B. The source says: Cellular processes regulated by Akt include cell proliferation, cell survival, cell size control, and response to nutrient availability, intermediary metabolism, angiogenesis, and tissue invasion. All these processes represent characteristics of cancer and many oncoproteins and tumor suppressors intersect in the Akt pathway, finely regulating cellular functions at the interface of signal transduction and classical metabolic regulation. Thus, as the content of phosphorylated Akt that is an active form increases, the activity of cancer cells increases. Here, the degree of inhibiting Akt phosphorylation by the 4 types of antibodies having improved affinities was evaluated.
To compare agonism of the 4 types of antibodies having improved affinities, as prepared in Example 5, Caki-1 cells (Korean Cell Line Bank) were used to confirm the degree of Akt phosphorylation. Mouse IgG was used as a negative control, and antibody 5D5 (a known agonist) was used as a positive control.
2×10^5 cells/ml of Caki-1 cells were introduced to a 96-well plate, and after 24 hours, each of 5 ug/ml of the antibodies was treated in serum free medium for 30 minutes. Lysis of the cells treated with the antibodies was performed and the degree of Akt phosphorylation was measured using a PathScan phospho-AKT1 (Ser473) chemiluminescent Sandwich ELISA kit (Cell Signaling, cat. no #7134S). […]
In general terms: ELISA stands for enzyme-linked immunosorbent assay.

For experiment [2], the target named is T1, c-Met in MKN45 cells (Homo sapiens, UniProt P08581).
T1 construct: MKN45 gastric cancer cells on which c-Met is expressed; endogenous in cells; host or cells: MKN45 gastric cancer cells (JCRB)
The experiment is described as follows: Degree of degradation of c-Met (total c-Met ELISA). It is filed as cell-based. To be noted: 5 ug/ml, 24 hours, FIG. 9B. As for the experimental part:
In order to identify anti-cancer effects of the 4 types of antibodies having improved affinities, as prepared in Example 5, the degree of degradation of c-Met bound to the antibodies was evaluated. A relative total amount of c-Met was obtained by measuring the change in the total amount of c-Met after the antibody binds to c-Met to degrade c-Met via internalization, and thus the efficacy of the antibody was evaluated.
MKN45 cells (2×10^5 cells/ml) and each of the antibodies (5 ug/ml) were simultaneously introduced to a 96-well plate and incubated for 24 hours. Then, lysis of the cells treated with antibodies was performed and the change in the total amount of c-Met was measured using a Human total HGF R/c-Met ELISA KIT (R&D systems, DYC358) and analyzed.
In order to identify anti-cancer effects of the 3 types of antibodies having improved affinities, as prepared in Example 11, the degree of degradation of c-Met bound to the antibody was evaluated. MKN45 cells (2×10^5 cells/ml) and each of the antibodies (5 ug/ml) were simultaneously introduced to a 96-well plate and incubated for 24 hours. Then, lysis of the cells treated with antibodies was performed and a change of the total amount of c-Met was measured using a Human total HGF R/c-Met ELISA KIT (R&D systems, DYC358) and analyzed.

T1 sequence (P08581 25-1390): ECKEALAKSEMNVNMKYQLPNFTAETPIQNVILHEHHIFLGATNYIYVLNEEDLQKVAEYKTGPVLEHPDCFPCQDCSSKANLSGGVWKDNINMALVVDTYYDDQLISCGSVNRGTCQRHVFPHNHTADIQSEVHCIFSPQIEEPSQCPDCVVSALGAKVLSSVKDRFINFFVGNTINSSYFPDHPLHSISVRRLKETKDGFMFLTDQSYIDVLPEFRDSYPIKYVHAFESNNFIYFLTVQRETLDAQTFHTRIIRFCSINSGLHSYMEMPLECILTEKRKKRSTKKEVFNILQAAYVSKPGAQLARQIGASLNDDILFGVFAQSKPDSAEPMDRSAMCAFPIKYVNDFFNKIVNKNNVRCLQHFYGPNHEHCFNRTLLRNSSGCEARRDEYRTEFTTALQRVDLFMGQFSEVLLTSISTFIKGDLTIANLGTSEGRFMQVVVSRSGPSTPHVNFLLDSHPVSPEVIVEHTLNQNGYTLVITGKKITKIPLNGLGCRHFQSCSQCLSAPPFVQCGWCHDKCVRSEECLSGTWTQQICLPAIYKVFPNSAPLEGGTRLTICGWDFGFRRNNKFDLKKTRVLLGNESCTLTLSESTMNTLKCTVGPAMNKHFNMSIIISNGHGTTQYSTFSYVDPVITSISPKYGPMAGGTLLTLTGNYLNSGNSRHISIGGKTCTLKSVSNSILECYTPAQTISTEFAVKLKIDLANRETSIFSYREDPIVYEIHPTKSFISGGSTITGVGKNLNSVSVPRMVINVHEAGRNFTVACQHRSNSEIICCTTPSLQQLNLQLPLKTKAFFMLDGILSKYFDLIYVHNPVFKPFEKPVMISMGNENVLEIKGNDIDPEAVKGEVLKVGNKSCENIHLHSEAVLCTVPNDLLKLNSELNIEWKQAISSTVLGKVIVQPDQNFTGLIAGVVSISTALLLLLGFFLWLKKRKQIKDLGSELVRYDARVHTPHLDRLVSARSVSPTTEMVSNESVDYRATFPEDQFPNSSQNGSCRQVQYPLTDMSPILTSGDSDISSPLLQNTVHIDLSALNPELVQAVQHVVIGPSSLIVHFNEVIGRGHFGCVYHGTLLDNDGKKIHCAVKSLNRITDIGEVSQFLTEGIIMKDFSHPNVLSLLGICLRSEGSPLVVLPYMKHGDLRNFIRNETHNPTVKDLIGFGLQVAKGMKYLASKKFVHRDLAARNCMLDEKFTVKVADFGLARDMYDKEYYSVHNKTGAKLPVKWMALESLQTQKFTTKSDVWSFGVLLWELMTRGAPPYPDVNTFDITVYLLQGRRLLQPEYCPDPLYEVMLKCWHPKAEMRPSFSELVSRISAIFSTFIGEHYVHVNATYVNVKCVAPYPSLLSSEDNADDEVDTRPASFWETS

B1: L3-11Y: light chain SEQ ID NO: 73 (serine 27e replaced with tryptophan) and the heavy chain of huAbF46-H4-A1 (IgG2 Fc) (antibody)
heavy: EVQLVESGGGLVQPGGSLRLSCAASGFTFTDYYMSWVRQAPGKGLEWLGFIRNKANGYTTEYSASVKGRFTISRDNSKNTLYLQMNSLRAEDTAVYYCARDNWFAYWGQGTLVTVSSASTKGPSVFPLAPCSRSTSESTAALGCLVKDYFPEPVTVSWNSGALTSGVHTFPAVLQSSGLYSLSSVVTVPSSNFGTQTYTCNVDHKPSNTKVDKTVERKCCVECPPCPAPPVAGPSVFLFPPKPKDTLMISRTPEVTCVVVDVSHEDPEVQFNWYVDGVEVHNAKTKPREEQFNSTFRVVSVLTVVHQDWLNGKEYKCKVSNKGLPAPIEKTISKTKGQPREPQVYTLPPSREEMTKNQVSLTCLVKGFYPSDIAVEWESNGQPENNYKTTPPMLDSDGSFFLYSKLTVDKSRWQQGNVFSCSVMHEALHNHYTQKSLSLSPGK
light: DIQMTQSPSSLSASVGDRVTITCKSSQSLLAWGNQNNYLAWYQQKPGKAPKMLIIWASTRVSGVPSRFSGSGSGTDFTLTISSLQPEDFATYYCQQSYSRPYTFGQGTKVEIKRTVAAPSVFIFPPSDEQLKSGTASVVCLLNNFYPREAKVQWKVDNALQSGNSQESVTEQDSKDSTYSLSSTLTLSKADYEKHKVYACEVTHQGLSSPVTKSFNRGEC
For B1, the “activity of Akt phosphorylation inhibition compared to huAbF46-H4-A1 (IgG2 Fc)” value in experiment [1] is recorded as “equal or higher activity of Akt phosphorylation inhibition”. Also, the “activity of c-Met degradation compared to huAbF46-H4-A1 (IgG2 Fc)” value in experiment [2] is given as “approximately equal activity of c-Met degradation”.

(Values after patent publication US9717715B2, “Method of combination therapy using an anti-C-Met antibody” (Samsung Electronics Co., Ltd., priority 2013, dated 2017).)
